The values below come from patent US20160032001A1 (APEXIGEN, published 2016).

Read-outs that look alike come from different tables or passages of the source.

Test [1] deals with T1, RANKL expressed on the surface of 293 cells (UniProt O14788 1-317, limits assumed).
T1 construct: whole, on cells; also called RANKL-transfected 293 cells; cells expressing RANKL
T1 sequence (looked up): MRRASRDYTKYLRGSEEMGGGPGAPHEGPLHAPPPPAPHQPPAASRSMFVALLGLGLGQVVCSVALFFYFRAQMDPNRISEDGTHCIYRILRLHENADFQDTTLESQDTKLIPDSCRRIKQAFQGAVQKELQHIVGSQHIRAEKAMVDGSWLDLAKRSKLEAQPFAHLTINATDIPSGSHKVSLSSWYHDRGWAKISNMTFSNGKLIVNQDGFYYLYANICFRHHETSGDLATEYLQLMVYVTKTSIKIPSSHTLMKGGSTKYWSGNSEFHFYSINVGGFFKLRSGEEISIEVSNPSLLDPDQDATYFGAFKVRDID
The experiment in a line: flow cytometry (MFI) on RANKL-transfected 293 cells. (In general: In flow cytometry, cells or beads pass a laser one at a time.)

In test [2] the target is T2, human RANKL protein (human, UniProt O14788 140-317, limits assumed).
T2 sequence (looked up): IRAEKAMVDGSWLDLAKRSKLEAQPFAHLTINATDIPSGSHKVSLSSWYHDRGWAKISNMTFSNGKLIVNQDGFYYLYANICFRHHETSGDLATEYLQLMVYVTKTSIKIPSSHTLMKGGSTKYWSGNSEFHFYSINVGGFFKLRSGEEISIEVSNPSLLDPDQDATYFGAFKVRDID
The experiment in a line: competition ELISA: RANKL (0.5 ug/ml) pre-incubated with the antibody, then binding to coated human RANK (8 ug/ml) detected; blocked partner RANK.

In test [3] the target is T1, RANKL expressed on the surface of 293 …. In words: flow cytometry (MFI) on RANKL-transfected 293 cells. The source holds these as a separate data set.
Test [4] concerns the target T2, human RANKL protein. The experiment in a line: competition ELISA: RANKL (0.5 ug/ml) pre-incubated with the antibody, then binding to coated human RANK (8 ug/ml) detected; blocked partner RANK. The source holds these as a separate data set. Background: An ELISA detects its analyte on a solid surface through an enzyme-linked reagent.
For test [5], the target named is T1, RANKL expressed on the surface of 293 …. In words: flow cytometry (MFI) on RANKL-transfected 293 cells. The source holds these as a separate data set.
In test [6] the target is T2, human RANKL protein. The experiment in a line: competition ELISA: RANKL (0.5 ug/ml) pre-incubated with the antibody, then binding to coated human RANK (8 ug/ml) detected; blocked partner RANK. The source holds these as a separate data set.
The target in test [7] is T2, human RANKL protein. The experiment in a line: cell-based or functional assay.
The target in test [8] is T2, human RANKL protein. The experiment in a line: surface plasmon resonance. (In general: In SPR one partner is held on a chip, and binding of the other changes the refractive index at the surface.)

B1: clone 299 rabbit anti-RANKL antibody (antibody, V domains shown)
VH: QSLEESGGRLVTPGTPLTLTCTVSGIDLSSSLMTWVRQAPGKGLEWIGYIWSGGAPFYASWAKGRFTISKTSSTTVDLKMTSLTTEDTATYFCAARYTDSGFDALDPWGPGTLVTVSS
VL: DMTQTPASVEAAVGGTVTIKCQASQSIGSYLSWYHQKPGQPPKLLIYRASTLASGVPSRFKGSGSGTQFTLTISDLECADAATYYCQQGYSANVDNAFGGGTEVVVK
Consider B1, for which the EC50 (commonly the concentration giving half of the maximal effect) in test [1] stood at 0.207 µg/mL. Also, in test [2], the IC50 (in general, the concentration at which inhibition is half-maximal) was determined as 0.0907 µg/mL.

B2: clone 68 rabbit anti-RANKL antibody (antibody, V domains shown)
VH: QEQLKESGGGLVKPDESLTLTCTASGFSLSSNGMSWARQAPGKGLEWIGYIYAGSSPYYANWAKGRFTISKTSSTTVDLKVTSLTTEDTATYFCARHASGGGWYLAIWGPGTLVTVSL
VL: DMIQTPASVEVAVGGTVTIGCQASQSIGSNLGWYQQKPGQPPKLLIYSASTLASGVSSRFKGSGSGTEFTLTISDVECDDAATYYCQQAYSVSNVDNAFGGGTEVVVK
For the molecule B2, in test [3], the half-maximal effective concentration (EC50) was 0.185 µg/mL. In test [4], the IC50 worked out at 0.0766 µg/mL.

B3: clone 130 rabbit anti-RANKL antibody (antibody, V domains shown)
VH: QSVEESGGRLVTPGTPLTLTCTVSGFSLSSGVVSWVRQAPGKGLEWIGYAWSGGATYYASWAKGRFTISKSSTTVDLKITSPTTADTATYFCARGYNGMDPWGPGTLVTVSS
VL: DMTQTPASVEVAVGGTVTIKCQASQNIGSNLAWYQQKPGQPPKLLIYKASTLASGVPSRFRGSGSGTEFTLAISDLECADAATYYCQQGYTTKDLVNPFGGGTEVVVK
B3: the EC50 in test [3] came out at 0.21 µg/mL. Further, the IC50 in test [4] came out at 0.078 µg/mL.

B4: clone 147 rabbit anti-RANKL antibody (antibody, V domains shown)
VH: QSVEESGGRLVTPGTPQTLTCTVSGFSLSTDVVSWVRQAPGKGLEWIGYTWNGGATYYASWAKGRFTFSKTSTTVDLKITSPTTEDTATYFCARGYNGMDPWGPGTLVTVSS
VL: DMTQTPASVEVAVGGTVTIKCQASQNIGSNLAWYQQKPGQPPKLLISKASTLASGVPSRFKGSGSGTEFTLAISDLECADAATYYCQQGYTTKNVVNPFGGGTEVVVK
In test [3], B4 registered a 50% effective concentration (EC50) of 0.0721 µg/mL. Moreover, the IC50 in test [4] turned out to be 0.0706 µg/mL.

B5: clone 7 rabbit anti-RANKL antibody (antibody, V domains shown)
VH: QEQLKESGGGLVTPGGTLTLTCTASGFSLTTNGMSWVRQAPGKGLEWIGYIYSGGSPYYANWAKGRFTISKTSSTTVDLKMTSLTTEDTATYFCARHLSGGGWYLDIWGPGTLVTVSL
VL: DMTQTPASVEVAVGGTVTINCQASQNIGSNLAWYQQKPGQPPKLLIYGASTLASGVSSRFKGSGSGTQFTFTISDVECTDPATYYCQQAYSISNVDNPFGGGTEVVVK
Turning to B5, the EC50 in test [3] was 0.248 µg/mL. This molecule also came in with a concentration for half-maximal inhibition (IC50) in test [4] of 0.0699 µg/mL.

B6: clone 379 rabbit anti-RANKL antibody (antibody, V domains shown)
VH: QEQLKESGGGLVTPGGTLTLTCTASRFSLINIGMSWVRQAPGRGLEWIGYIYSGGSPYYANWAKGRFTISRTSTTVDLKMTSLTTEDTATYFCARHASDGGWYLDIWGPGTLVTVSL
VL: DMIQTPASVEVAVGGTVTINCQASQSIGSNLAWYQQKPGQPPKLLIYLASTLPSGVPSRFKGSGSGTQFTFTISDVECTDAATYYCQQAYTASNVDNAFGGGTEVVVK
Take B6: the EC50 in test [1] was determined as 0.221 µg/mL. The 50% inhibitory concentration (IC50) in test [2] amounted to 0.0614 µg/mL.

B7: clone 318 rabbit anti-RANKL antibody (antibody, V domains shown)
VH: QDQLKESGGGLVTPGGTLTLTCTASGFSLGSNGMSWVRQAPGKGLEWIGYIYSGSSPYYASWAKGRFTISKTSSTTVDLKMTSLTTEDTATYFCAGHAKGGGWYLDIWGPGTLVTVSL
VL: DMTQTPASVSAAVGGTVTINCQASQSIGSNLGWYQQKPGQPPKLLIYGASTLASGVSSRFKGSGSGTHFAFTISDVECTDAATYYCQQAYSVGNVDNAFGGGTEVVVK
For B7, the midpoint of the response in test [1], the EC50, lay at 0.164 µg/mL. Further, the IC50 in test [2] worked out at 0.0624 µg/mL.

B8: clone 565 rabbit anti-RANKL antibody (antibody, V domains shown)
VH: QEDLKESGGGLITPGGTLTLTCTGSGFSLSSDGMSWVRQAPGKGLEWIGYIYSGSSPYYANWAKGRFTISKTSSTTVDLKMTSLTTEDTATYFCARHLSGGGWYLDIWGPGTLVTVSL
VL: DMIQTPASVSEPVGGTVTINCQASQNIGSNLAWYQQKPGQPSKLLIYKASTLASGVPSRFKGSGSGTDFTLTISDLECADAATYYCQQAYTISNVDNAFGGGTEVVVK
B8 yielded an EC50 in test [5] of 0.0831 µg/mL.

B9: clone 246 rabbit anti-RANKL antibody (antibody, V domains shown)
VH: QSVKESGGGLVTPGGTLTLTCTASGLSLSGNGMSWVRQAPGKGLEWIGYIYSGSSPYYASWAKGRFTISKTSSTTVDLKMTSLTTEDTATYFCARHTSGGGWYLDIWGPGTLVTVSL
VL: DMIQTPASVEVAVGGTVTINCQASQSIGSNLAWYQQKPGQPPKLLIYSASTLASGVSSRFKGSGSGTDYTLTISDVECTDAATYYCQQAYSISNVENPFGGGTEVVVK
Consider B9, for which the EC50 in test [1] was determined as 1 µg/mL. Moreover, the IC50 in test [6] came to 0.486 µg/mL.

B10: clone 238 rabbit anti-RANKL antibody (antibody, V domains shown)
VH: QEQLKESGGGLVTPGGTLTLTCTASGFSLNTNAMSWVRQAPGKGLEWIGYIYSGGSPYYANWAKGRFTISRTSTTVHLKMTSLTTEDTATYFCASHTSGGGWYLDIWGPGTLVTVSL
VL: DMIQTPASVEVAVGGTVTINCQASQNIGSNLAWYQQKPGQPPKLLIYGTSTLASGVSSRFKGSGFGTQFTFTISDVECTDAATYYCQQAYSTSKIDNAFGGGTEVVVK
In turn, B10 returned an EC50 in test [1] of 0.2 µg/mL. The molecule also showed an IC50 in test [6] of 0.0596 µg/mL.

B11: clone 91 rabbit anti-RANKL antibody (antibody, V domains shown)
VH: QSLEESGGRLVKPDETLTLTCTVSGSSLYNYEINWVRQAPGKGLEWIGYIDVGSGTWYASWAKGRFTISKTSTTVDLKITSPTTEDTATYFCTRKYNPMDLWGPGTLVTVSS
VL: DMTQTPASVEVAVGGTVTIKCQASQNIGSNLAWYQQKPGQPPKLLIYSTSTVASGVPSRFKGSGFGTQFTLTISGVQCDDAATYYCQQGYSAGNVNNPFGGGTEVVVK
For the molecule B11, the “IC50 in a RAW cell assay (TRAP activity, OD 405 nM)” value in test [7] stood at 0.00488 µg/mL. Also, in test [8], the Kd (commonly the concentration at which binding is half-saturated) was determined as 0.589 nM; the koff (usually a measure of how fast the partners let go of each other) was 0.000273 s⁻¹; the association rate constant (kon) (in general, the rate constant with which the complex forms) came out at 464000 M⁻¹ s⁻¹. Moreover, in test [3], the EC50 stood at 0.0664 µg/mL. Moreover, in test [4], the half-maximal inhibitory concentration (IC50) is 0.0645 µg/mL.

B12: clone 220 rabbit anti-RANKL antibody (antibody, V domains shown)
VH: QSLEESGGRLVTPGTPLTLTCTVSGFSLSKYEINWVRQAPGKGLEWIGYIDVGSGTWYASWAKGRFTISKTSTTVALRITSPTTEDTATYFCSRQYNPMDLWGPGTLVTVSS
VL: DMTQTPASVEAAVGGTVTIKCQASQNIGSNLAWYQQKPGQRPKLLIYSASTLASGVPSRFKGSGSGTQFTLTISGVQCDDAATYYCQQGYSVGNVNNAFGGGTEVVVK
Molecule B12 returned a concentration for a half-maximal effect (EC50) in test [1] of 0.153 µg/mL. Also, the concentration for half-maximal inhibition (IC50) in test [6] came out at 0.0648 µg/mL.

B13: clone 256 rabbit anti-RANKL antibody (antibody, V domains shown)
VH: QSLEESGGRLVTPGTPLTLTCTVSGFSLSKYEINWVRQAPGKGLEWIGYIDVGSGTWYASWAKGRFTISKTSTTVALRITSPTTEDTATYFCSRQYNPMDLWGPGTLVTVSS
VL: DMTQTPASVEAAVGGTVTIKCQASQNIGSNLAWYQQKPGQRPKLLIYSASTLASGVPSRFKGSGSGTQFTLTISGVQCDDAATYYCQQGYSVGNVNNAFGGGTEVVVK
On to B13, for which, in test [1], it took 0.135 µg/mL to reach a half-maximal effect (EC50). In addition, the IC50 in test [6] is 0.0508 µg/mL.

B14: clone 37 rabbit anti-RANKL antibody (antibody, V domains shown)
VH: QSVEESGGRLVTPGTPLTLTCTVSGFSLSNDVMSWVRQAPGKGLEWIGYIWSGGSPYYANWAKGRFTISKSSSTTVDLKITSPTTEDTAAYFCARGFGSSGLNIWGPGTLVTVSL
VL: DMTQTPASVEVAVGGTVTIKCQASQSIGSNLAWYQQKPGQSPKLLIYSASILASGVPSRFKGSGSGTQFTLTISGVQCDDAATYYCQQGYSVGNIDNAFGGGTEVVVK
As to B14, in test [3], the EC50 turned out to be 0.137 µg/mL. Besides, the 50% inhibitory concentration (IC50) in test [4] worked out at 0.0436 µg/mL.

B15: clone 270 rabbit anti-RANKL antibody (antibody, V domains shown)
VH: QSVEESGGRLVTPGTPLTLTCTVSGFSLSSDVMSWVRQAPGKGLDWIGYIWSGGRPYYANWAKGRFTISKSSSTTVDLKITSPTTEDTAAYFCARGFGSSGLNIWGPGTLVTVSL
VL: DMTQTPASVEVAVGGTVTIKCQASQNIGYNLAWYQQKPGQPPKLLIYGASTLASGVPSRFKGSGSGTQFTLTISGVQCDDAATYYCQQGYSVSNIDNAFGGGTEVVVK
In turn, B15 displayed an EC50 in test [1] of 0.0751 µg/mL. The concentration for half-maximal inhibition (IC50) in test [6] came out at 0.058 µg/mL.

B16: clone 227 rabbit anti-RANKL antibody (antibody, V domains shown)
VH: QSLEESGGRLVKPDETLTLTCTVSGFSLYNYEINWVRQAPGKGLEWIGYIDVGSGTWYASWAKGRFTISKTSTTVDLKITSPTTEDTATYFCTRKYNPMDLWGPGTLVTVSS
VL: DMTQTPASVEVAVGGTVTIKCQASQNIGSNLAWYQQKPGQPPKLLIYSTSTVASGVPSRFKGSGFGTQFTLTISGVQCDDAATYYCQQGYSAGNVNNPFGGGTEVVVK
In the case of B16, it took 0.0858 µg/mL to reach a half-maximal effect in test [1] (EC50). Further, in test [6], the IC50 was determined as 0.0643 µg/mL.
